From patent publication US20130209454A1

Legend:
Assay in all cases: cell-based or functional assay
[1] = target: Env of HIV-1 strain 3415.v1.c1 (HIV-1)
[2] = target: HIV-1 Env of strain P0402_c2_11 (HIV-1)
[3] = target: HIV-1 Env of strain PVO.4 (HIV-1)
[4] = target: HIV-1 Env of strain Ce1172_H1 (HIV-1)
[5] = target: Env of HIV-1 strain 3817.v2.c59 (HIV-1)
[6] = target: Env of HIV-1 strain Q259.d2.17 (HIV-1)
[7] = target: HIV-1 Env of strain T255-34 (HIV-1)
[8] = target: HIV-1 Env of strain C2101.c01 (HIV-1)
[9] = target: HIV-1 Env of strain 3415.v1.c1 (HIV-1)
[10] = target: HIV-1 Env of strain CNE30 (HIV-1)
[11] = target: Env of HIV-1 strain CNE17 (HIV-1)
[12] = target: Env of HIV-1 strain BJOX025000.01.1 (HIV-1)
[13] = target: Env of HIV-1 strain 928-28 (HIV-1)
[14] = target: Env of HIV-1 strain 0815.v3.c3 (HIV-1)
[15] = target: HIV-1 Env of strain HIV-16845-2.22 (HIV-1)
[16] = target: HIV-1 Env of strain ZM197M.PB7 (HIV-1)
[17] = target: HIV-1 Env of strain HIV-16055-2.3 (HIV-1)
[18] = target: Env of HIV-1 strain BJOX010000.06.2 (HIV-1)
[19] = target: HIV-1 Env of strain SC05_8C11_2344 (HIV-1)
[20] = target: HIV-1 Env of strain Ce0682_E4 (HIV-1)
[21] = target: Env of HIV-1 strain 6545.v4.c1 (HIV-1)
[22] = target: HIV-1 Env of strain 9004SS_A3_4 (HIV-1)
[23] = target: Env of HIV-1 strain CNE52 (HIV-1)
[24] = target: HIV-1 Env of strain 191821_E6_1 (HIV-1)
[25] = target: HIV-1 Env of strain T250-4 (HIV-1)
[26] = target: Env of HIV-1 strain CNE21 (HIV-1)
[27] = target: Env of HIV-1 strain CNE20 (HIV-1)
[28] = target: HIV-1 Env of strain 231966.c02 (HIV-1)
[29] = target: Env of HIV-1 strain Ce2060_G9 (HIV-1)
[30] = target: Env of HIV-1 strain 249M B10 (HIV-1)
[31] = target: Env of HIV-1 strain Q461.e2 (HIV-1)
[32] = target: Env of HIV-1 strain T255-34 (HIV-1)
[33] = target: Env of HIV-1 strain T251-18 (HIV-1)
[34] = target: Env of HIV-1 strain Ce1172_H1 (HIV-1)
[35] = target: HIV-1 Env of strain 3016.v5.c45 (HIV-1)
[36] = target: Env of HIV-1 strain 6535.3 (HIV-1)
[37] = target: HIV-1 Env of strain CNE58 (HIV-1)
[38] = target: HIV-1 Env of strain CNE21 (HIV-1)
[39] = target: Env of HIV-1 strain Ce1176_A3 (HIV-1)
[40] = target: Env of HIV-1 strain SC422661.8 (HIV-1)
[41] = target: HIV-1 Env of strain C1080.c03 (HIV-1)
[42] = target: HIV-1 Env of strain Ce2010_F5 (HIV-1)
[43] = target: Env of HIV-1 strain 6952.v1.c20 (HIV-1)
[44] = target: Env of HIV-1 strain 211-9 (HIV-1)
[45] = target: Env of HIV-1 strain Du172.17 (HIV-1)
[46] = target: Env of HIV-1 strain A07412M1.vrc12 (HIV-1)
[47] = target: HIV-1 Env of strain CNE17 (HIV-1)
[48] = target: HIV-1 Env of strain 1054_07_TC4_1499 (HIV-1)
[49] = target: HIV-1 Env of strain WEAU_d15_410_787 (HIV-1)
[50] = target: HIV-1 Env of strain Q23.17 (HIV-1)
[51] = target: Env of HIV-1 strain 231966.c02 (HIV-1)

Chain of NIH45-46 (antibody) (VH): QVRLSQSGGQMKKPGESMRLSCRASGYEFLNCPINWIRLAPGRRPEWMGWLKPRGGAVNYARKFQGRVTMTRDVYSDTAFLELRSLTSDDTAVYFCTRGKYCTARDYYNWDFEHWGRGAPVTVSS
Chain of NIH45-46 (antibody) (V domain): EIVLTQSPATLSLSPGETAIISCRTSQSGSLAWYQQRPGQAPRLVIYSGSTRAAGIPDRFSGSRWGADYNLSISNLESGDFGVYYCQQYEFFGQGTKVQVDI

NIH45-46 (antibody)
IC80 [1]: 0.086 µg/mL | IC50, pseudovirus neutralization [2]: 0.073 µg/mL | IC50, pseudovirus neutralization [3]: 0.12 µg/mL | IC50, pseudovirus neutralization [4]: > 50 µg/mL | IC80 [5]: > 50 µg/mL | IC80 [6]: 0.154 µg/mL | IC50, pseudovirus neutralization [7]: 0.71 µg/mL | IC50, pseudovirus neutralization [8]: 4.24 µg/mL | IC50, pseudovirus neutralization [9]: 0.022 µg/mL | IC50, pseudovirus neutralization [10]: 0.309 µg/mL | IC80 [11]: 0.734 µg/mL | IC80 [12]: 10 µg/mL | IC80 [13]: 0.64 µg/mL | IC80 [14]: 0.052 µg/mL | IC50, pseudovirus neutralization [15]: 5 µg/mL | IC50, pseudovirus neutralization [16]: 0.15 µg/mL | IC50, pseudovirus neutralization [17]: 0.02 µg/mL | IC80 [18]: 6.37 µg/mL | IC50, pseudovirus neutralization [19]: 0.14 µg/mL | IC50, pseudovirus neutralization [20]: 0.054 µg/mL | IC80 [21]: > 50 µg/mL | IC50, pseudovirus neutralization [22]: 0.18 µg/mL | IC80 [23]: 0.12 µg/mL | IC50, pseudovirus neutralization [24]: 0.09 µg/mL | IC50, pseudovirus neutralization [25]: > 50 µg/mL | IC80 [26]: 38.1 µg/mL | IC80 [27]: > 50 µg/mL | IC50, pseudovirus neutralization [28]: 1.64 µg/mL | IC80 [29]: 0.29 µg/mL | IC80 [30]: 0.17 µg/mL | IC80 [31]: 0.291 µg/mL | IC80 [32]: 3.44 µg/mL | IC80 [33]: 3.68 µg/mL | IC80 [34]: > 50 µg/mL | IC50, pseudovirus neutralization [35]: > 50 µg/mL | IC80 [36]: 0.54 µg/mL | IC50, pseudovirus neutralization [37]: 0.43 µg/mL | IC50, pseudovirus neutralization [38]: 6.01 µg/mL | IC80 [39]: 3.17 µg/mL | IC80 [40]: 0.13 µg/mL | IC50, pseudovirus neutralization [41]: 2.48 µg/mL | IC50, pseudovirus neutralization [42]: 0.101 µg/mL | IC80 [43]: 0.07 µg/mL | IC80 [44]: > 50 µg/mL | IC80 [45]: > 50 µg/mL | IC80 [46]: 0.13 µg/mL | IC50, pseudovirus neutralization [47]: 0.261 µg/mL | IC50, pseudovirus neutralization [48]: 0.113 µg/mL | IC50, pseudovirus neutralization [49]: 0.005 µg/mL | IC50, pseudovirus neutralization [50]: 0.14 µg/mL | IC80 [51]: 9.64 µg/mL
